# Laboratory results: patent publication US20180282403A1, “AGENTS FOR REDUCING THE ACTIVITY OF GDF15” (GENAGON THERAPEUTICS AB, priority 2015, published 2018)
# No end group written: not given here.
# T1: GDF15 (Homo sapiens, UniProt Q99988)
# T1 construct: purchased Abcam
# T1 sequence (Q99988 197-308 limits assumed): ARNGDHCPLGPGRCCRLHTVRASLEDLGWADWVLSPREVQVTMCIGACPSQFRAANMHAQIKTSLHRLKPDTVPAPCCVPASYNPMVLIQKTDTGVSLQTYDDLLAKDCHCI
# T2: QRFPR (Homo sapiens, UniProt Q96P65)
# T2 construct: endogenous in cells
# T2 sequence (Q96P65 1-431): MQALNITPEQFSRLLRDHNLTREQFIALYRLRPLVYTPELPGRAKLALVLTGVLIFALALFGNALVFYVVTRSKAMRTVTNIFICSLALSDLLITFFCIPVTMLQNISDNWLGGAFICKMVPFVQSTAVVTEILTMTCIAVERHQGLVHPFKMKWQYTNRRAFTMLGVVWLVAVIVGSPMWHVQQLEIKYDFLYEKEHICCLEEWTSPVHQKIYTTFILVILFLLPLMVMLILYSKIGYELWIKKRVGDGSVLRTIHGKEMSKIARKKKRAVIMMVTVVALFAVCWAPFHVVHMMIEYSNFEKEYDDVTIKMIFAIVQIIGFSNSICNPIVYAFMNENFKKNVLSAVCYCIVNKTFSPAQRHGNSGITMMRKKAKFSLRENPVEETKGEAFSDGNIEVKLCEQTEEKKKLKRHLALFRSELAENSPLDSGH
# T3: Growth and differentiation factor 15 (GDF15) (UniProt Q99988 197-308, limits assumed)
# T3 construct: Purchased GDF15 added to cells, pull-downs, peptide arrays and ELISA; also called MIC1
# T3 sequence (looked up): T1 sequence (Q99988 197-308 limits assumed)
# B1: CLPTM1 peptide KALYRRLATVHMSRMINKYKG (SEQ ID NO: 259) (peptide)
# peptide: KALYRRLATVHMSRMINKYKG
# modifications: also: biotinylated, position not given here
# notes: Immobilised in streptavidin wells; the entry carries one added C-terminal G; also called (182-201)
# B2: AAAQEADGARSAVVAAGGGSSGQVTSNGSIGRDPPAETQPQNPPAQPAPNAGGGGSGGGGSGGGGS-Fc mouse IgG1 (protein)
# chain: AAAQEADGARSAVVAAGGGSSGQVTSNGSIGRDPPAETQPQNPPAQPAPNAGGGGSGGGGSGGGGS-{Fc mouse IgG1}
# notes: control protein, Fc fusion
# B3: CLPTM1 peptide YPINESLASLPLRVSFCPLSG (SEQ ID NO: 269) (peptide)
# peptide: YPINESLASLPLRVSFCPLSG
# modifications: also: biotinylated, position not given here
# notes: Immobilised in streptavidin wells; the entry carries one added C-terminal G; also called (292-311)
# B4: CLPTM1 peptide ITINIVDDHTPWVKGSVPPPG (SEQ ID NO: 262) (peptide)
# peptide: ITINIVDDHTPWVKGSVPPPG
# modifications: also: biotinylated, position not given here
# notes: Immobilised in streptavidin wells; the entry carries one added C-terminal G; also called (242-260)
# B5: CLPTM1 peptide LDQYVKFDAVSGDYYPIIYFG (SEQ ID NO: 263) (peptide)
# peptide: LDQYVKFDAVSGDYYPIIYFG
# modifications: also: biotinylated, position not given here
# notes: Immobilised in streptavidin wells; the entry carries one added C-terminal G; also called (262-280)
# B6: CLPTM1 peptide GDYYPIIYFNDYWNLQKDYYG (SEQ ID NO: 270) (peptide)
# peptide: GDYYPIIYFNDYWNLQKDYYG
# modifications: also: biotinylated, position not given here
# notes: Immobilised in streptavidin wells; the entry carries one added C-terminal G; also called (273-292)
# How the values were obtained:
# GDF15 [1] = target: T1, GDF15; assay: Pull down of GDF15 by Fc fusion proteins with stringent washes; type: binding; details: 20 μg Fc fusion protein, 0.5 μg GDF15, protein-G bead, FIG. 27
# Description: 20 μg Fc fusion protein constructs were incubated with 0.5 μg GDF15 and protein-G bead with mixing for 6 hrs in +4 C in PBST+1% BSAs. Wash 6 times: 3 times PBST, change tubes, 2 washes PBST+220 mM NaCl. Last wash PBS. The beads were collected using a table-top centrifuge set at 500 g for 5 minutes between washes. Detection The material was loaded on a 4-12% gradient gel, run at 100 volt, transferred to PVDF membrane using a Turbo Tank blot system, blocked by PBS with 3% BSA 1 hr RT, and incubated with RD systems a monoclonal anti-GDF15 antibody overnight. A secondary antibody: mouse HRP 1:2000 was used for detection. The size of band was estimated by comparing with a seeblue2 protein ladder marker run in an adjacent lane.
# The fragments from the receptors were selected based on previous results including array data indicating direct interaction with GDF15. In the array, the interaction is between a peptide monomer and the ligand.
# GDF15 [2] = target: T1, GDF15; assay: ELISA of GDF15 binding to immobilised biotinylated CLPTM1 derived peptides; details: for binding of GDF15 to immobilised polypeptide: cut-off approximately greater than or equal to 0.1 OD
# Description: (§1) Biotinylated synthetic peptide fragments from CLPTM1 (JPT peptides, Germany) were immobilized in a streptavidin 96 well plate (#15500 Pierce) at 1 μM in PBS over night at +4° C. Plate was washed 4 times in 300 μl PBS with 0.05% Tween-20 (wash buffer). The plate was blocked with PBS 1% BSA and 0.05% Tween-20 (blocking buffer) for 1.5 hours at room temperature then washed 4 times in wash buffer. GDF15 ligand (Abcam) was added in blocking buffer at 100 ng/ml at incubated at room temperature for 2 hours. The plate was then washed 8 times 300 μl in wash buffer with 2× NaCl. A GDF15 antibody as added at 1 ug/ml (RnD systems goat polyclonal) and incubated in block buffer for 1 hour at room temperature followed by washing with 4×300 μl wash buffer. HAF017 anti-goat-HRP antibody was added and incubated for 1 hour in blocking buffer followed by a wash. TMB substrate was added and stopped after 15 minutes with H2SO4. OD 450-620 was measured in an ELISA reader.
# Polypeptides having sequences set forth in SEQ ID NOs:250-273 were assessed for binding to GDF15 (corresponding to the polypeptides indicated from left to right in FIG. 31). These proteins were synthesised with a C-terminal glycine residue not present in the corresponding sequences from CLPTM1. A cut-off of approximately greater than or equal to 0.1 OD in the ELISA readout was identified as indicating binding of the GDF15 to an immobilised polypeptide (i.e. including the 0.098 OD value for GDF15 binding to the polypeptide having the sequence set forth in SEQ ID NO:258).
# QRFPR = target: T2, QRFPR; assay: ACTRIIB assay: in situ PLA detection of ACTRIIB at the cell surface after QRFPR agonist P518; type: cell-based
# From the text: A-C) In situ detection of QRFPR at the cell surface. A) Negative control cells with no added GDF15. B) Cells after exposure to GDF15. C) Cells after exposure to GDF15+ synthetic peptide GEKEYDDVTIK derived from extracellular domain 4 of QRFPR. […] D-F) In situ PLA detection of ACTRIIB at the cell surface. D) Control cells with no added P518. E) Cells after exposure to P518. F) Cells after exposure to P518+ synthetic peptide GEKEYDDVTIK derived from extracellular domain 4 of QRFPR in 125 molar excess. The ability of P518 to increase the level of ACTRIIB at the cell surface was not affected by the peptide.
# The effect of the QRFPR agonist p518 was measured. In short, p518/QRFP-26 was purchased from Phoenix Peptides, CA and processed according to the manufacturer's instructions. Cells were serum-starved prior to P518 stimulation overnight.
# P518 was mixed with either PBS or QRFPR receptor fragment dissolved in PBS prior to stimulation of cells.
# [3] = target: T3, Growth and differentiation factor 15 …; assay: ELISA, biotinylated peptide in streptavidin wells, GDF15 at 100 ng/ml
# Description: as §1, with “H₂SO₄.” for “H2SO4.”
# Polypeptides having sequences set forth in SEQ ID NOs:250-273 were assessed for binding to GDF15 (corresponding to the polypeptides indicated from left to right in FIG. 31). These proteins were synthesised with a C-terminal glycine residue not present in the corresponding sequences from CLPTM1.
Molecule,binding of GDF15 to immobilised polypeptide (GDF15 [2]; FIG. 31),binding result [3],further results
"Fc mouse IgG1-GGGGSGGGGSGGGGSQRLEIKYDFLYEKEH ({Fc mouse IgG1}-GGGGSGGGGSGGGGSQRLEIKYDFLYEKEH) [AP5, Fc fusion protein with QRFPR peptide]",–,–,pull down of GDF15 by Fc fusion protein (GDF15 [1]): capable of pulling down GDF15
GDYYPIIYFNDYWNLQKDYYG (listed as Homo sapiens) [SEQ ID NO:270],showed binding to GDF15,–,affinity for GDF15 (MIC1) within a panel of 24 CLPTM1 derived peptides (GDF15 [2]): highest affinity
GSIYIHVYFTKSGFHPDPRQG (listed as Homo sapiens) [SEQ ID NO:258],showed binding to GDF15,–,"OD value in the ELISA readout for GDF15 binding (GDF15 [2]; peptide immobilised at 1 μM, GDF15 100 ng/ml, OD 450-620, FIG. 31): 0.098 OD"
ITINIVDDHTPWVKGSVPPPG (listed as Homo sapiens) [SEQ ID NO:262],showed binding to GDF15,–,–
KALYRRLATVHMSRMINKYKG (listed as Homo sapiens) [SEQ ID NO:259],showed binding to GDF15,–,–
LDQYVKFDAVSGDYYPIIYFG (listed as Homo sapiens) [SEQ ID NO:263],showed binding to GDF15,–,–
"QRFP(43-mer): known agonist for QRFPR (QDEGSEATGFLPAAGEKTSGPLGNLAEELNGYSRKKGGFSFRF; ends and bridges not checked; UniProt P83859 91-133, looked up)",–,–,regulation of the levels of ACTRIIB by QRFPR agonists (QRFPR): act in opposite manner to each other
YPINESLASLPLRVSFCPLSG (listed as Homo sapiens) [SEQ ID NO:269],showed binding to GDF15,–,–
p518: QRFPR agonist purchased from Phoenix Peptides (TSGPLGNLAEELNGYSRKKGGFSFRF),–,–,"regulation of the levels of ACTRIIB by QRFPR agonists (QRFPR): act in opposite manner to each other; levels of ACTRIIB (QRFPR; p518 alone, serum-starved cells, overnight stimulation): sufficient to increase levels of ACTRIIB"
B1,–,binds,–
B2,–,–,pull down of GDF15 by Fc fusion protein (GDF15 [1]): did not interact with GDF15
B3,–,binds,–
B4,–,binds,–
B5,–,binds,–
B6,–,binds,–
